The source of these data is patent US20090124570A1, “Methods and Compositions for Facilitating Tissue Repair and Diagnosing, Preventing, and Treating Fibrosis” (University of Maryland, Baltimore, priority 2007, published 2009).

“Also recorded” adds a separate entry of the source.

The test system of experiment [1] is COL1A2 promoter. Kind of experiment: Collagen promoter-CAT reporter construct in transfected fibroblasts. The format is cell-based, human. The procedure:
Production of collagen was measured in cell cultures utilizing the metabolic labeling of collagen with ^14C-proline as described by Luzina. I. G. Luzina et al. (2006) Am J Respir Cell Mol Biol. 35:298-305; I. G. Luzina et al. (2006) Arthritis Rheum. 54: 2643-2655. Briefly, fibroblast monolayers were pulsed with L-[U-^14C]-proline (Amersham Biosciences, Piscataway, N.J.) at 1 μCi/ml for the final 12 hours of incubation. Purified bacterial collagenase type III was purchased from Sigma Aldrich (St. Louis, Mo.). Fibroblasts were then ruptured by repeated freeze-thawing, and part of each sample digested with collagenase type III. The samples were pelleted with 20% TCA containing 0.1% L-proline, and then the pellets were resuspended and washed twice with 5% TCA and 95% ice-cold ethanol. The samples were assayed in a liquid scintillation counter in order to determine the amount of collagenase-digestible and non-digestible ^14C-labeled protein. Alternatively, collagen protein levels in cell culture supernatants were measured in Western blotting assays as described above. The activity of the COL1A2 promoter was measured in primary fibroblasts transfected with collagen promoter-chloramphenicol acetyltransferase (CAT) reporter constructs as described by Luzina. I. G. Luzina et al. (2006) Am J Respir Cell Mol Biol. 35:298-305. […]

The subject of experiment [2] is primary pulmonary fibroblasts. The settings on record: as reported by Luzina et al. 2006; cited from earlier work.
In experiment [3] the test system is primary pulmonary fibroblasts. Kind of experiment: Collagen production in primary fibroblast cultures (14C-proline incorporation, Western blotting). The conditions noted are these: primary fibroblasts stimulated with rhBIGH3, various doses and times, 14C-proline incorporation and Western blotting. The experiment is classed as cell-based, human. The procedure: (§1) Preparation of cell lysates, immunoprecipitation of BIGH3 protein, normalization of protein concentration in the samples with BioRad assays, electrophoretic separation and Western blotting were performed as previously described by Atamas. S. P. Atamas et al. (2003) Am J Respir Cell Mol Biol. 29:743-749. Goat antibodies for BIGH3 were purchased from R&D Systems (Minneapolis, Minn.). Goat antibodies for MMP14 were purchased from Santa-Cruz Biotechnology (Santa Cruz, Calif.). Western blotting assays for collagen were performed using rabbit affinity purified anti-collagen type I antibody (Rockland, Gilbertsville, Pa.).
Production of collagen was measured in cell cultures utilizing the metabolic labeling of collagen with ^14C-proline as described by Luzina. I. G. Luzina et al. (2006) Am J Respir Cell Mol Biol. 35:298-305; I. G. Luzina et al. (2006) Arthritis Rheum. 54: 2643-2655. […] Alternatively, collagen protein levels in cell culture supernatants were measured in Western blotting assays as described above. The activity of the COL1A2 promoter was measured in primary fibroblasts transfected with collagen promoter-chloramphenicol acetyltransferase (CAT) reporter constructs as described by Luzina. […]
To test this possibility, fibroblast cultures were incubated for various times with various doses of recombinant human BIGH3 (rhBIGH3), and the levels of collagen accumulation were measured. […]
Background: A western blot detects proteins with antibodies after separation by electrophoresis.

For experiment [4], the system named is Smad3/4, Sp1, AP1, Ets. Description: Transcription factor array, DNA binding of collagen promoter regulators in fibroblasts. The format is cell-based, human. The settings on record: BIGH3-stimulated vs control fibroblasts, transcription factor arrays. The protocol:
Further experiments were performed to determine whether the increase in collagen levels stimulated by BIGH3 was due to transcriptional upregulation of the collagen gene expression.
(§2) Nuclear extracts from BIGH3-activated and control fibroblast cultures were prepared using nuclear extraction kit from Active Motif (Carlsbad, Calif.) and adjusted for total protein content using Bio-Rad assays. DNA binding by 345 different transcription factors was evaluated using protein/DNA TranSignal™ system (Panomics, Redwood City, Calif.), following the manufacturer's recommendations.

In experiment [5] the test system is matrix metalloproteinase 2 (MMP2). Description: MMP2 levels in primary fibroblast cultures. The conditions noted are these: primary fibroblast cultures stimulated with recombinant BIGH3. The experiment is classed as cell-based, human.
In experiment [6] the test system is PU.1. Description: Transcription factor array, DNA binding by PU.1 in fibroblasts. The experiment is classed as cell-based, human. The conditions noted are these: fibroblasts stimulated with 300 ng/ml rhBIGH3. The protocol:
as §2

Experiment [7] concerns COL1A2 mRNA. Description: Real-time PCR of COL1A2 mRNA in fibroblasts. The experiment is classed as cell-based, human. The conditions noted are these: BIGH3-treated vs control fibroblast cultures. The protocol:
Total RNA purification, reverse transcription, and real-time PCR were performed using LightCycler (Roche, Indianapolis, Ind.), as previously described by Atamas. S. P. Atamas et al. (2003) Am J Respir Cell Mol Biol. 29:743-749. Quantification of internal control 18S ribosomal RNA was performed as reported previously by Luzina. I. G. Luzina et al. (2006) J Cell Physiol. 206:221-228. The PCR reaction mixture included the recommended components of the FastStart DNA Master Hybridization Probes Hot Start Reaction Mix (Roche, Indianapolis, Ind.). The fold difference in gene expression relative to 18S ribosomal RNA between treated and untreated cultures was calculated using the 2^−ΔΔCt method. I. G. Luzina et al. (2006) Arthritis Rheum. 54: 2643-2655. The primers and the hybridization probes for COL1A2 mRNA were designed and prepared by TIB Molbiol (Adelphia, N.J.). The primers for COL1A2 mRNA were: forward, 5′-GATGGTGAAGATGGTCCCACAGG-3′ (SEQ ID NO: 1) and reverse, 5′-GGTCGTCCGGGTTTTCCAGGGT-3′ (SEQ ID NO: 2). The hybridization probes were labeled with fluorescein at the 3′-terminus (3FL) of one probe and with LightCycler Red at the 5′-terminus (5LC) of the other probe. The probes were 3FL 5′-TTCCAAGGACCTGCTGGTGAGCCT-3′ (SEQ ID NO: 3) and 5LC 5′-TGAACCTGGTCAAACTGGTCCTGCAG-3′ (SEQ ID NO: 4). […]
For orientation: Real-time PCR tracks product formation cycle by cycle.

In experiment [8] the test system is MMP14. Description: Western blotting for MMP14 protein in primary fibroblasts. The format is cell-based, human. The conditions noted are these: fibroblasts with 300 ng/ml rhBIGH3 for 24 h or 48 h. The procedure: as §1
Experiments were performed to determine whether BIGH3 upregulates collagen levels in fibroblast cultures by attenuating collagen turnover. To address such a possibility, experiments were performed in which primary fibroblasts were incubated for 6 h with or without 300 ng/ml BIGH3. The expression levels of 84 genes related to connective tissue biology were analyzed using reverse transcriptase—real time PCR approach (RT^2 Profiler™ SuperArray, Frederick, Md.). […] These experiments were repeated on three independent occasions with primary fibroblast cultures from different donors, with consistent results. MMP14 is a critical factor for collagen turnover by fibroblasts. H. Lee et al. (2006) Mol Biol Cell. 17:4812-4826. […]

Experiment [9] concerns p53. Kind of experiment: Transcription factor array, DNA binding by p53 in fibroblasts. The experiment is classed as cell-based, human. The conditions noted are these: fibroblasts stimulated with 300 ng/ml rhBIGH3. The protocol:
as §2

As for TGF-β [reference compound], in [1], the “response of collagen promoter-CAT reporter construct” value is listed as “responsive”. For the same molecule, the “concentration of active TGF-β required for upregulation of collagen production” value in experiment [2] is “at least 500 pg/ml”.

B1: rhBIGH3: recombinant human BIGH3 (TGFBI, keratoepithelin), a 68 kDa extracellular matrix protein (protein, UniProt Q15582 24-683, looked up)
Transforming growth …: GPAKSPYQLVLQHSRLRGRQHGPNVCAVQKVIGTNRKYFTNCKQWYQRKICGKSTVISYECCPGYEKVPGEKGCPAALPLSNLYETLGVVGSTTTQLYTDRTEKLRPEMEGPGSFTIFAPSNEAWASLPAEVLDSLVSNVNIELLNALRYHMVGRRVLTDELKHGMTLTSMYQNSNIQIHHYPNGIVTVNCARLLKADHHATNGVVHLIDKVISTITNNIQQIIEIEDTFETLRAAVAASGLNTMLEGNGQYTLLAPTNEAFEKIPSETLNRILGDPEALRDLLNNHILKSAMCAEAIVAGLSVETLEGTTLEVGCSGDMLTINGKAIISNKDILATNGVIHYIDELLIPDSAKTLFELAAESDVSTAIDLFRQAGLGNHLSGSERLTLLAPLNSVFKDGTPPIDAHTRNLLRNHIIKDQLASKYLYHGQTLETLGGKKLRVFVYRNSLCIENSCIAAHDKRGRYGTLFTMDRVLTPPMGTVMDVLKGDNRFSMLVAAIQSAGLTETLNREGVYTVFAPTNEAFRALPPRERSRLLGDAKELANILKYHIGDEILVSGGIGALVRLKSLQGDKLEVSLKNNVVSVNKEPVAEPDIMATNGVVHVITNVLQPPANRPQERGDELADSALEIFKQASAFSRASQRSVRLAPVYQKLLERMKH
With B1, the figures for the collagen protein levels entry in [3] and in experiment [3] (listed as recombinant BIGH3) were “directly regulated collagen production; also recorded: Increases in collagen protein levels” and “upregulation of collagen protein”, respectively. Further, in [4], the “DNA binding activity of Smad3/4, Sp1, AP1, Ets” value is “no differences were detected; also recorded: no increase in the activity”. Moreover, in [1], the “response of collagen promoter-CAT reporter construct” value is given as “no differences were observed; also recorded: non-responsive”. Further, the MMP2 levels result in experiment [5] is “downregulation”. Moreover, the “DNA binding by PU.1” value in experiment [6] was “significant upregulation”; in [6] (listed as BIGH3) it was “increased”. In addition, in [7], the “collagen (COL1A2) mRNA steady-state levels” value is listed as “no differences in steady-state levels; also recorded: did not stimulate an increase in collagen mRNA”. The MMP14 protein levels entry in experiment [8] is listed as “decreased significantly”. Further, the results for the “DNA binding by p53” value in experiment [9] and in experiment [9] (listed as BIGH3) were “downregulation” and “decreased”, respectively.
